# System: Escherichia coli TOP10
# Test: shrunken log2 fold change of peptide-encoding DNA abundance (4.5 h post-induction vs induction); higher = less antimicrobial activity (less host growth inhibition)
# Conditions: time post-induction: 4.5 h; library: site-saturation at positions 5, 18, 19, 20
# 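Further: peptides expressed intracellularly from a pBAD plasmid library in pooled LB shake-flask culture, induced with 0.3% L-arabinose, DNA abundance read by NGS, three biological replicates, DESeq2 with apeglm shrinkage.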
row,Sequence,shrunken log2 fold change
1,RRIRRRPPRLPRPRPRPWHCPRP,-0.18
2,RRIRRRPPRLPRPRPRPWHNPRP,-0.279
3,RRIRRRPPRLPRPRPRPWHWPRP,0.183
4,RRIRRRPPRLPRPRPRPWLHPRP,0.333
5,RRIRRRPPRLPRPRPRPWLRPRP,-0.103
6,RRIRRRPPRLPRPRPRPWLVPRP,-0.0986
7,RRIRRRPPRLPRPRPRPWMWPRP,0.0918
8,RRIRRRPPRLPRPRPRPWNDPRP,-0.345
9,RRIRRRPPRLPRPRPRPWNLPRP,-0.269
10,RRIRRRPPRLPRPRPRPWNMPRP,-0.479
11,RRIRRRPPRLPRPRPRPWPQPRP,0.101
12,RRIRRRPPRLPRPRPRPWQLPRP,0.144
13,RRIRRRPPRLPRPRPRPWRPPRP,0.734
14,RRIRRRPPRLPRPRPRPWRRPRP,0.358
15,RRIRRRPPRLPRPRPRPWRSPRP,0.181
16,RRIRRRPPRLPRPRPRPWSKPRP,-0.225
17,RRIRRRPPRLPRPRPRPWSLPRP,0.016
18,RRIRRRPPRLPRPRPRPWVPPRP,-0.0825
19,RRIRRRPPRLPRPRPRPWWMPRP,0.386
20,RRIRRRPPRLPRPRPRPWWSPRP,0.105
21,RRIRRRPPRLPRPRPRPYALPRP,-0.5
22,RRIRRRPPRLPRPRPRPYDCPRP,-0.113
23,RRIRRRPPRLPRPRPRPYDIPRP,-0.249
24,RRIRRRPPRLPRPRPRPYDKPRP,-0.213
25,RRIRRRPPRLPRPRPRPYEFPRP,-0.187

row,Sequence,shrunken log2 fold change
1,RRIRRRPPRLPRPRPRPYFWPRP,0.0638
2,RRIRRRPPRLPRPRPRPYGCPRP,-0.00402
3,RRIRRRPPRLPRPRPRPYGHPRP,-0.198
4,RRIRRRPPRLPRPRPRPYHHPRP,-0.471
5,RRIRRRPPRLPRPRPRPYILPRP,0.366
6,RRIRRRPPRLPRPRPRPYLGPRP,-0.276
7,RRIRRRPPRLPRPRPRPYLLPRP,-0.263
8,RRIRRRPPRLPRPRPRPYLMPRP,-0.146
9,RRIRRRPPRLPRPRPRPYLTPRP,0.0355
10,RRIRRRPPRLPRPRPRPYMKPRP,-0.0984
11,RRIRRRPPRLPRPRPRPYMTPRP,-0.0329
12,RRIRRRPPRLPRPRPRPYNAPRP,-0.964
13,RRIRRRPPRLPRPRPRPYNDPRP,-0.176
14,RRIRRRPPRLPRPRPRPYNFPRP,-0.642
15,RRIRRRPPRLPRPRPRPYNLPRP,-0.233
16,RRIRRRPPRLPRPRPRPYNSPRP,-0.573
17,RRIRRRPPRLPRPRPRPYPRPRP,0.207
18,RRIRRRPPRLPRPRPRPYPSPRP,-0.305
19,RRIRRRPPRLPRPRPRPYQAPRP,-0.303
20,RRIRRRPPRLPRPRPRPYQFPRP,0.0273
21,RRIRRRPPRLPRPRPRPYSFPRP,-0.529
22,RRIRRRPPRLPRPRPRPYSLPRP,-0.0861
23,RRIRRRPPRLPRPRPRPYTCPRP,0.0906
24,RRIRRRPPRLPRPRPRPYTTPRP,-0.354
25,RRIRRRPPRLPRPRPRPYVFPRP,-0.623

row,Sequence,shrunken log2 fold change
1,RRIRRRPPRLPRPRPRPYVKPRP,-0.166
2,RRIRRRPPRLPRPRPRPYYTPRP,1.46
3,RRIRSRPPRLPRPRPRPAACPRP,0.222
4,RRIRSRPPRLPRPRPRPAAGPRP,0.585
5,RRIRSRPPRLPRPRPRPAAQPRP,0.833
6,RRIRSRPPRLPRPRPRPAAVPRP,0.418
7,RRIRSRPPRLPRPRPRPACAPRP,0.482
8,RRIRSRPPRLPRPRPRPACHPRP,-0.0735
9,RRIRSRPPRLPRPRPRPADHPRP,-0.166
10,RRIRSRPPRLPRPRPRPADRPRP,0.308
11,RRIRSRPPRLPRPRPRPAECPRP,0.0306
12,RRIRSRPPRLPRPRPRPAEWPRP,1.02
13,RRIRSRPPRLPRPRPRPAFEPRP,0.0595
14,RRIRSRPPRLPRPRPRPAFGPRP,0.291
15,RRIRSRPPRLPRPRPRPAFIPRP,-0.0885
16,RRIRSRPPRLPRPRPRPAGQPRP,-0.0166
17,RRIRSRPPRLPRPRPRPAGSPRP,-0.209
18,RRIRSRPPRLPRPRPRPAHFPRP,-0.418
19,RRIRSRPPRLPRPRPRPAHKPRP,-0.152
20,RRIRSRPPRLPRPRPRPAHNPRP,0.133
21,RRIRSRPPRLPRPRPRPAISPRP,0.153
22,RRIRSRPPRLPRPRPRPAKKPRP,0.0292
23,RRIRSRPPRLPRPRPRPAKNPRP,0.157
24,RRIRSRPPRLPRPRPRPAKTPRP,0.111
25,RRIRSRPPRLPRPRPRPALTPRP,0.369

row,Sequence,shrunken log2 fold change
1,RRIRSRPPRLPRPRPRPALWPRP,0.825
2,RRIRSRPPRLPRPRPRPAMKPRP,0.00274
3,RRIRSRPPRLPRPRPRPAQAPRP,0.15
4,RRIRSRPPRLPRPRPRPAQDPRP,0.235
5,RRIRSRPPRLPRPRPRPARCPRP,0.114
6,RRIRSRPPRLPRPRPRPASMPRP,0.0141
7,RRIRSRPPRLPRPRPRPATTPRP,0.584
8,RRIRSRPPRLPRPRPRPAVCPRP,0.185
9,RRIRSRPPRLPRPRPRPAVEPRP,0.39
10,RRIRSRPPRLPRPRPRPAVSPRP,0.105
11,RRIRSRPPRLPRPRPRPAWCPRP,0.545
12,RRIRSRPPRLPRPRPRPAWHPRP,0.0201
13,RRIRSRPPRLPRPRPRPAWNPRP,0.467
14,RRIRSRPPRLPRPRPRPAYKPRP,-0.136
15,RRIRSRPPRLPRPRPRPAYWPRP,0.259
16,RRIRSRPPRLPRPRPRPCAAPRP,0.312
17,RRIRSRPPRLPRPRPRPCAEPRP,0.0817
18,RRIRSRPPRLPRPRPRPCCAPRP,0.115
19,RRIRSRPPRLPRPRPRPCCKPRP,0.0569
20,RRIRSRPPRLPRPRPRPCCYPRP,0.145
21,RRIRSRPPRLPRPRPRPCDEPRP,0.124
22,RRIRSRPPRLPRPRPRPCDTPRP,-0.227
23,RRIRSRPPRLPRPRPRPCETPRP,0.18
24,RRIRSRPPRLPRPRPRPCFMPRP,0.914
25,RRIRSRPPRLPRPRPRPCGMPRP,-0.0447

row,Sequence,shrunken log2 fold change
1,RRIRSRPPRLPRPRPRPCGYPRP,-0.00214
2,RRIRSRPPRLPRPRPRPCHAPRP,-0.0203
3,RRIRSRPPRLPRPRPRPCHKPRP,-1.16
4,RRIRSRPPRLPRPRPRPCHQPRP,-0.0637
5,RRIRSRPPRLPRPRPRPCIEPRP,-0.21
6,RRIRSRPPRLPRPRPRPCINPRP,-0.5
7,RRIRSRPPRLPRPRPRPCIYPRP,-0.847
8,RRIRSRPPRLPRPRPRPCMFPRP,-0.258
9,RRIRSRPPRLPRPRPRPCNNPRP,-0.332
10,RRIRSRPPRLPRPRPRPCQRPRP,-0.0305
11,RRIRSRPPRLPRPRPRPCQVPRP,-0.0521
12,RRIRSRPPRLPRPRPRPCRNPRP,-0.273
13,RRIRSRPPRLPRPRPRPCRVPRP,0.11
14,RRIRSRPPRLPRPRPRPCSHPRP,-0.174
15,RRIRSRPPRLPRPRPRPCSNPRP,-0.0564
16,RRIRSRPPRLPRPRPRPCSWPRP,-0.0623
17,RRIRSRPPRLPRPRPRPCTCPRP,-0.177
18,RRIRSRPPRLPRPRPRPCTFPRP,-0.401
19,RRIRSRPPRLPRPRPRPCTRPRP,-0.134
20,RRIRSRPPRLPRPRPRPCVSPRP,-0.391
21,RRIRSRPPRLPRPRPRPCVTPRP,0.0116
22,RRIRSRPPRLPRPRPRPCYCPRP,-0.215
23,RRIRSRPPRLPRPRPRPDACPRP,0.322
24,RRIRSRPPRLPRPRPRPDAEPRP,0.984
25,RRIRSRPPRLPRPRPRPDAPPRP,0.49

row,Sequence,shrunken log2 fold change
1,RRIRSRPPRLPRPRPRPDCAPRP,0.187
2,RRIRSRPPRLPRPRPRPDCYPRP,-0.374
3,RRIRSRPPRLPRPRPRPDDIPRP,-0.00173
4,RRIRSRPPRLPRPRPRPDDYPRP,0.0211
5,RRIRSRPPRLPRPRPRPDEMPRP,0.435
6,RRIRSRPPRLPRPRPRPDEVPRP,0.0037
7,RRIRSRPPRLPRPRPRPDGRPRP,0.0253
8,RRIRSRPPRLPRPRPRPDGVPRP,-0.115
9,RRIRSRPPRLPRPRPRPDIKPRP,-0.336
10,RRIRSRPPRLPRPRPRPDIRPRP,-0.0108
11,RRIRSRPPRLPRPRPRPDKGPRP,-0.108
12,RRIRSRPPRLPRPRPRPDPDPRP,-0.0414
13,RRIRSRPPRLPRPRPRPDRGPRP,-0.0384
14,RRIRSRPPRLPRPRPRPDRMPRP,-0.129
15,RRIRSRPPRLPRPRPRPDVQPRP,-0.147
16,RRIRSRPPRLPRPRPRPDYCPRP,-0.284
17,RRIRSRPPRLPRPRPRPDYLPRP,-0.0749
18,RRIRSRPPRLPRPRPRPECFPRP,3.03
19,RRIRSRPPRLPRPRPRPEDHPRP,0.146
20,RRIRSRPPRLPRPRPRPEEIPRP,-0.00908
21,RRIRSRPPRLPRPRPRPEGDPRP,0.203
22,RRIRSRPPRLPRPRPRPEHIPRP,0.0843
23,RRIRSRPPRLPRPRPRPEKSPRP,-0.32
24,RRIRSRPPRLPRPRPRPELEPRP,0.54
25,RRIRSRPPRLPRPRPRPELFPRP,0.104
